Experimental data published in PMC5902190 (Biochemistry, 2017).
Like-named read-outs stand apart in the source and are kept apart here.

What was measured:
Test in all cases: ATP/PPi exchange rate against MLP concentration
[1] = target: EntF, enterobactin nonribosomal peptide synthetase (E. coli) (UniProt P11454)
[2] = target: T1, EntF, enterobactin nonribosomal peptide synthetase (E. coli, UniProt P11454 1-1293)
[3] = target: T1, EntF, enterobactin nonribosomal peptide …; remark: listed apart in the source

T1 sequence (P11454 whole entry): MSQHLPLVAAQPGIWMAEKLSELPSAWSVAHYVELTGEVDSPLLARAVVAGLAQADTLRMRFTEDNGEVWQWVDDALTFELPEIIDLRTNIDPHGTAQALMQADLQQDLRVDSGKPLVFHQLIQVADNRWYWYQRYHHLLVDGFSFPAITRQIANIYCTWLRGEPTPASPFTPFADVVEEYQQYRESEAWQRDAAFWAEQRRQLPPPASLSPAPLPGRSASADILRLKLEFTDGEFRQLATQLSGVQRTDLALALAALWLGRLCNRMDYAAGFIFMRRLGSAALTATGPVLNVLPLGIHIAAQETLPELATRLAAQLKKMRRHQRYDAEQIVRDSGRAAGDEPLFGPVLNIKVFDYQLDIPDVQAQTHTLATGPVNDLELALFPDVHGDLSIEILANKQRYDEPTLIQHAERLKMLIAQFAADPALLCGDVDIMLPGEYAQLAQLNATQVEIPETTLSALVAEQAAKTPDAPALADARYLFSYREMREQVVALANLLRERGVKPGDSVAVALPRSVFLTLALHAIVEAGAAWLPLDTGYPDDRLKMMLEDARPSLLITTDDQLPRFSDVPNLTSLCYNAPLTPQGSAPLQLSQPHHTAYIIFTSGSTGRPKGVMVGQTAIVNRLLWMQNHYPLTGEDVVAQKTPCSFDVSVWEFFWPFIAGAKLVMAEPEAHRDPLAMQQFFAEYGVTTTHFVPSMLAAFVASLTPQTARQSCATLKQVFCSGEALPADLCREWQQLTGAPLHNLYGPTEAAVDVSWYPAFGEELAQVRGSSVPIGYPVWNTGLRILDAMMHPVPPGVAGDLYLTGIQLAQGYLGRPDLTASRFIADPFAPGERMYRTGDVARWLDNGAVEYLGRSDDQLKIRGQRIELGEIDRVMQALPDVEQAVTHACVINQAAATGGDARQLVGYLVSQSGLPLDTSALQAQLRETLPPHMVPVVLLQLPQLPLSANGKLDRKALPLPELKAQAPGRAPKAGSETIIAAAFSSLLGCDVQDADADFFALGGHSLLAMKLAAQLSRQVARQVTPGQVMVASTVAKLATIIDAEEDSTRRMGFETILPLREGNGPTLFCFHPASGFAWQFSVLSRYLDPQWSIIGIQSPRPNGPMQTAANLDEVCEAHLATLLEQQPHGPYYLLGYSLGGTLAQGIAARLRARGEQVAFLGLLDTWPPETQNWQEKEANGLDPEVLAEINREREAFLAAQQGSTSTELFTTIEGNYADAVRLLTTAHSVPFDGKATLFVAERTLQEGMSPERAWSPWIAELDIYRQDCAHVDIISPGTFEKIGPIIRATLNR
EntF, enterobactin nonribosomal peptide synthetase (E. coli), sequence (P11454 whole entry): as above

VioN, MbtH-like protein of viomycin biosynthesis (purified, tag cleaved) (natural protein)
Kd [1]: 200 nM

B1: CmnN, MbtH-like protein of capreomycin biosynthesis (purified, tag cleaved) (natural protein, Saccharothrix mutabilis subsp. capreolus, UniProt A6YEI5 1-62, looked up)
chain: MDTYLVVVNHEEQYSVWPADRPLPAGWRAEGTSGDKEQCLAHIETVWTDMRPLSVRRRAEAV
Kd [2]: 150 ± 7 nM

B2: MbtH, MbtH-like protein of mycobactin biosynthesis (purified, tag cleaved) (natural protein)
chain: MSTNPFDDDNGAFFVLVNDEDQHSLWPVFADIPAGWRVVHGEASRAACLDYVEKNWTDLRPKSLRDAMVED
Kd [3]: 54.6 ± 8 nM

B3: MXAN_3118, orphan MbtH-like protein (purified, tag cleaved) (natural protein, Myxococcus xanthus DK1622, UniProt Q1D7Q2 1-71, looked up)
chain: MTDEREDTTVYKVVVNHEEQYSIWPADRENALGWKDAGKQGLKAECLEYIKEVWTDMRPLSLRKKMEELKS
Kd [2]: 166 ± 29 nM

B4: BSU31959, MbtH-like protein of corynebactin biosynthesis (purified, tag cleaved) (natural protein, Bacillus subtilis strain 168, UniProt C0H3Q6 1-69, looked up)
chain: MANPFENADGTYLVLVNEEGQYSLWPGFIDVPSGWTVVHEQKGREACLDYIQSHWSDMRPNSLKTVENV
Kd [2]: 310 ± 69 nM
